# Test results reported in patent publication CN117545770A (HOFFMANN LA ROCHE, dated 2024).
# B1: HLA-G-0090 (antibody, IgG1, V domains shown)
# VH: QVQLQQSGPGLLKPSQTLSLTCAISGDSVSSNRAAWNWIRQSPSRGLEWLGRTYYRSKWYNDYAVSVQGRITLIPDTSKNQFSLRLNSVTPEDTAVYYCASVRAVAPFDYWGQGVLVTVSS
# VL: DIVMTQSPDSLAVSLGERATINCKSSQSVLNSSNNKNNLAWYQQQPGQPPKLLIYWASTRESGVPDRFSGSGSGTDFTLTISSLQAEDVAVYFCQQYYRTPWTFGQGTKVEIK
# modifications: N-glycosylation at the NSS motif of CDR-L1 (LC positions 31-33; Fab glycosylation found by mass spectrometry); N-glycosylation in CDR-L1 (NSS motif, LC 31-33) is on the light chain, not on this chain
# notes: also called 亲代抗体HLA-G-0090
# B2: HLA-G-0090-VL-S33A (antibody, V domains shown)
# VH: B1 VH
# VL: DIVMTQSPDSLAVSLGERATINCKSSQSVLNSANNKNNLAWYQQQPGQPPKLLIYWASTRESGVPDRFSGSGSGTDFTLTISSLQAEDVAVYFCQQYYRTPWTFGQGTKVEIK
# notes: also called HLA-G-0090-S33A
# B3: HLA-G-0090-VL-S33P (antibody, IgG1, V domains shown)
# VH: B1 VH
# VL: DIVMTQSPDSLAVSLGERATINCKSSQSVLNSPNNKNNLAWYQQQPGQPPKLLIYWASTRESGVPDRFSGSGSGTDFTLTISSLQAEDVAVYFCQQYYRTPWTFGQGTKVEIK
# notes: IgG1 format, HEK293F; also called HLA-G-0090-S33P
# B4: HLA-G-0090-VL-S32P (antibody, V domains shown)
# VH: B1 VH
# VL: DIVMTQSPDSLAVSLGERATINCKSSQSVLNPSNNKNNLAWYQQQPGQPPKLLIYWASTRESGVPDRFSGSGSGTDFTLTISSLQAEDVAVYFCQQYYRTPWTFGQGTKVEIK
# notes: also called HLA-G-0090-S32P
# B5: HLA-G-0090-VL-S33D (antibody, IgG1, V domains shown)
# VH: B1 VH
# VL: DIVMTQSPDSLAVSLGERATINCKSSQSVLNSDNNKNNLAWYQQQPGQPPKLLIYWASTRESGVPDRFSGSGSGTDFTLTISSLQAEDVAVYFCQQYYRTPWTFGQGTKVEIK
# notes: IgG1 format, HEK293F; also called HLA-G-0090--S33D
# Biological target: T1, 重组单链HLA-G单体/人HLA-Gβ2M MHC I类复合物 (SEQ ID NO:39) (human)
# T1 construct: also called wt-HLA-G复合物; wt-HLA-G抗原
# Test: SPR Biacore T200, 25 °C, multi-cycle kinetics; antibody captured by anti-hFc on CM3 chip, HLA-G complex as analyte; 1:1 Langmuir
row,t1/2 [s],Binder
1,390,B1
2,466,B2
3,188,B3
4,441,B4
5,104,B5

# Biological target: T1, 重组单链HLA-G单体/人HLA-Gβ2M MHC I类复合物 (SEQ ID …)
# Test: SPR multi-cycle kinetics
row,fold decrease of binding affinity against HLA-G-0090 [fold],Binder
1,2,B3
2,5,B5
